In patent publication US20090317414A1 (4G VACCINES, published 2009):

T1: MHC class I H-2K^b on RMA-S cells (C57BL/6 TAP2-deficient cells) (mouse, UniProt P01887 21-119; P01901 22-369)
T1 construct: whole, on cells; Cell surface H-2K^b stabilised by added peptide and detected with anti-H-2K^b antibody HB-158
T1 sequence (MHC heavy, looked up): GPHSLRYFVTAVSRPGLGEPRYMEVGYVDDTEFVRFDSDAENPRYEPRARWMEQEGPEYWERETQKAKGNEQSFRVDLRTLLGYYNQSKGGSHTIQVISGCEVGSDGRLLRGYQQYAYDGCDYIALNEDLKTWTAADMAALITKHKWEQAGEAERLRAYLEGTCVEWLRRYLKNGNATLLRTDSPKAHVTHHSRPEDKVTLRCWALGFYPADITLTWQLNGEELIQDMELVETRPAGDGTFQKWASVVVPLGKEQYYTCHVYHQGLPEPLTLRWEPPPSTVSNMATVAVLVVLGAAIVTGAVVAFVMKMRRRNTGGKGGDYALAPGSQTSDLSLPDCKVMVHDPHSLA
T1 sequence (b2m, looked up): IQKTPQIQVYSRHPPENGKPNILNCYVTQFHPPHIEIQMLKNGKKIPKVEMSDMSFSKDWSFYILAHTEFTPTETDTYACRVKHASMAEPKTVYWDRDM

B1: MUC1-8 (SAPDTRPA) (peptide)
peptide: SAPDTRPA
notes: Synthetic peptide, purity >95%; also called MUC1-8 peptide; parent non-canonical peptide MUC1-8
B2: soluble H-2K^b (soluble extracellular domains; heavy chain residues 1-274 with C-terminal His-tag and β2-microglobulin residues 1-99) (other)
chain: GPHSLRYFVTAVSRPGLGEPRYMEVGYVDDTEFVRFDSDAENPRYEPRARWMEQEGPEYWERETQKAKGNEQSFRVDLRTLLGYYNQSKGGSHTIQVISGCEVGSDGRLLRGYQQYAYDGCDYIALNEDLKTWTAADMAALITKHKWEQAGEAERLRAYLEGTCVEWLRRYLKNGNATLLRTDSPKAHVTHHSRPEDKVTLRCWALGFYPADITLTWQLNGEELIQDMELVETRPAGDGTFQKWASVVVPLGKEQYYTCHVYHQGLPEPLTLRWEPPPSTVSNM

Key:
[1] = molecular target: B2; assay: inhibition assay with soluble H-2K^b, 4° C.
[2] = molecular target: T1, MHC class I H-2K^b on RMA-S cells …; assay: peptide stabilisation assay on RMA-S cells, flow cytometry with anti-H-2K^b
Protocol: MHC class I molecules in the murine cell line RMA-S (C57BL/6 TAP2-deficient cells) can be used to measure the direct binding of peptides to class I molecules in vitro. […] The cells were washed once again and 100 μl (1:500 dilution) of FITC-conjugated sheep (Fab′)₂ anti-mouse immunoglobulin was added and incubated for 45 min at 4° C.; after further washing, cells were analyzed by FACScan.

[3] = molecular target: B2; assay: inhibition assay with soluble H-2K^b, 37° C.
[4] = molecular target: B2; assay: inhibition assay with soluble H-2K^b, 23° C.
[5] = molecular target: B2; assay: inhibition assay with soluble H-2K^b, 23° C. and 37° C.
[6] = molecular target: B2; assay: inhibition assay with soluble H-2K^b, 23° C.; remark: listed apart in the source
[7] = molecular target: SEV9 ([…]), Sendai virus NP324-332 (Sendai virus); assay: inhibition assay with soluble H-2K^b, 4° C.
[8] = molecular target: SEV9 ([…]), Sendai virus NP324-332 (Sendai virus); assay: inhibition assay with soluble H-2K^b, 37° C.
[9] = molecular target: SEV9 ([…]), Sendai virus NP324-332 (Sendai virus); assay: inhibition assay with soluble H-2K^b, 23° C.

| Binder | Kd [1] [nM] | peptide concentration that stabilised H-2K^b [2] [nM] | Kd [3] [nM] | Kd [4] [nM] | fold increase in affinity against MUC1-8 [5] [fold] | fold increase in affinity against MUC1-8 [6] [fold] | Kd [7] [nM] | Kd [8] [nM] | Kd [9] [nM] |
| --- | --- | --- | --- | --- | --- | --- | --- | --- | --- |
| B1 | 433 | > 100000 | 37000 | 877 | – | – | – | – | – |
| SAPDFRPA (Synthetic peptide) [MUC1-8-5F (SAPDFRPA)] | 460 | > 100 | 4900 | 130 | ≥ 7 | – | – | – | – |
| SAPDFRPL (Synthetic peptide) [MUC1-8-5F8L (SAPDFRPL)] | 160 | > 1 | 300 | 60 | – | 14 | – | – | – |
| SAPDTRPL (Synthetic peptide) [MUC1-8-8L (SAPDTRPL)] | 150 | > 1000 | 8900 | 250 | ≥ 3 | – | – | – | – |
| SIINFEKL [OVA8 (SIINFEKL), Chicken ovalbumin257-264] | 6 | – | 82 | 10 | – | – | – | – | – |
| B2 | – | – | – | – | – | – | 5 | 30 | 3 |
